B1: Protein EAP1 (Saccharomyces cerevisiae), P36041 (parent)
chain: MELNDPSIISSSQFSGELSDSDTAAATHKSQQAISNLFQKLAKKGREEKPIGSVESSTDSSNISVATSGNNKESNKKKNKKTAMLNFSSLTDPITNYKPMDLQYKTYAYSMNELYHLKPSLASASYEEDPLISELVRSLPKRKFWRLRMGPPDQKHANNHHFNGNNGGGSWKAGYKNGKNDERRMSRTKNMQGGKRRSQQDDEEKKIDQEMLEMDKNLQLGGDVGHSIADFEDWKAKMKELELKKLSKSKGISNSTAIAPRESASHETPTDLRPVIPRGPSSITDFLNLKRQDKKEESSQQTPGIPVGQPSLSKTSIEQVNELETNSDLGKSSSSRFSSFFNKSATSLPSLDNNNQVPSSNVSVVNNDGNSTPHQSGSRLMSFFKESRSSTPNAESQLLSASDKDNGKMQTLPQFQQQPQQMQPMAFTQHPPNNNAFFNGLLNKGKSETSTPPPPPPGLIAHQGPQFPVMGVPPNFPQRMMPPPPGLVQFQKDSKDVNKKEDRQLRQNKNPNGTRNSKGKQEETATPDLPQQQYMPPPPPPGFFPMHPNFPNGPMPPLPQGFPIPPNGMLPVTGQQPQPPYPNMMLQGNFPPNFQQGFGSNSPMPIPSIINANGKNVTNQLPPGLNSKKNIK
partner: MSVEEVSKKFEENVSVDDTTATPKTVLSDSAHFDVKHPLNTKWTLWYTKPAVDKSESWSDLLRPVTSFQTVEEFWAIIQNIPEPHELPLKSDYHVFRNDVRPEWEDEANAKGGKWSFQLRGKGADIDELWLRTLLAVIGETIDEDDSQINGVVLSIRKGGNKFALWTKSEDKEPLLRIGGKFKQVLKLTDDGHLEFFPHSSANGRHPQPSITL

Variants of: B1
Conditions: with if4e_yeast CDC33, P07260

Row | Variant | effect of a mutation on the interaction
1 | Y109A;L114A | disrupting interaction
2 | Y109A | disrupting interaction
